Source: paper PMC4906154, “Mitochondrial disease-related mutations at the cytochrome b-iron–sulfur protein (ISP) interface: Molecular effects on the large-scale motion of ISP and superoxide generation studied in Rhodobacter capsulatus cytochrome bc1^” (Biochimica et Biophysica Acta, 2016)
Positions count from the first letter of the chain named. In names and notes the source's numbering stands.

B1: cytochrome bc1 (R. capsulatus bc1 complex) (Rhodobacter capsulatus) (protein)
chain 1: MSGIPHDHYEPKTGIEKWLHDRLPIVGLVYDTIMIPTPKNLNWWWIWGIVLAFTLVLQIVTGIVLAIDYTPHVDLAFASVEHIMRDVNGGWAMRYIHANGASLFFLAVYIHIFRGLYYGSYKAPREITWIVGMVIYLLMMGTAFMGYVLPWGQMSFWGATVITGLFGAIPGIGPSIQAWLLGGPAVDNATLNRFFSLHYLLPFVIAALVAIHIWAFHTTGNNNPTGVEVRRTSKADAEKDTLPFWPYFVIKDLFALALVLLGFFAVVAYMPNYLGHPDNYIQANPLSTPAHIVPEWYFLPFYAILRAFAADVWVVILVDGLTFGIVDAKFFGVIAMFGAIAVMALAPWLDTSKVRSGAYRPKFRMWFWFLVLDFVVLTWVGAMPTEYPYDWISLIASTYWFAYFLVILPLLGATEKPEPIPASIEEDFNSHYGNPAE
chain 2: MSHAEDNAGTRRDFLYHATAATGVVVTGAAVWPLINQMNASADVKAMSSIFVDVSAVEVGTQLTVKWRGKPVFIRRRDEKDIELARSVPLGALRDTSAENANKPGAEATDENRSLAAFDGTNTGEWLVMLGVCTHLGCVPMGDKSGDFGGWFCPCHGSHYDSAGRIRKGPAPRNLDIPVAAFVDETTIKLG
notes: petABC operon from plasmid pPET1, C-terminal Strep-tag on cytochrome b, expressed in R. capsulatus MT-RBC1 (host), DDM-solubilised from chromatophores, Strep-tag purified; homodimer of 3 catalytic subunits; with Cytochrome c1
B2: cytochrome bc1 (R. capsulatus bc1 complex) (Rhodobacter capsulatus; P0CY47:G332D) (protein)
chain 1: B1 chain 1 with G332D
chain 2: B1 chain 2
notes: as for B1

Substrate: CCCCCCCCCCc1c(C)c(O)c(OC)c(OC)c1O
Test: steady-state cytochrome c reduction, spectroscopic, Michaelis-Menten fit
Type: biochemical, Rhodobacter capsulatus
Details: 20 μM bovine heart cytochrome c, 50 mM Tris pH 8.0, 0.01% DDM, 100 mM NaCl, DBH2 0.5-20 μM, Qo site, turnover given as Vmax

Row | Protein | Km [µM] | kcat [s⁻¹]
1 | B1 | 2.3 ± 0.5 | 146 ± 9
2 | B2 | 1.1 ± 0.2 | 45 ± 2
